Measured values published in article PMC6934455, “Molecular Dynamics model of peptide-protein conjugation: case study of covalent complex between Sos1 peptide and N-terminal SH3 domain from Grb2” (Scientific Reports, 2019).
Where two headings read alike, the source gives them in different places.

Experiments:
[1] = molecular target: Sos1-X′ peptide (Homo sapiens); assay: NMR
[2] = molecular target: Sos1-X′ peptide (Homo sapiens); assay: NMR; remark: listed apart in the source

B1: Grb2 N-SH3 2-59, P62993 (protein)
chain: EAIAKYDFKATADDELSFKRGDILKVLNEESDQNWYKAELNGKDGFIPKNYIEMKPHP
A Kd [1] of 4.9 µM and a Kd [2] of 4.6 µM were found for B1 in this work.
